Experimental findings from paper PMC3324563 (Biochemistry, 2012) are described below.

The labels stand for the following.
B1: Alexafluor-labeled Methanocaldococcus jannaschii HmdII (natural protein, Methanocaldococcus jannaschii JAL-1, UniProt Q58734 1-353, looked up)
chain: MRNIRKIKVDNMKVSVYGAGNQNLYINKLNLPEKFGGEPPYGGSRMAIEFAEAGHDVVLAEPNKNIMSDDLWKKVEDAGVKVVSDDVEAAKHGEIHVLFTPFGKATFRIAKTIIEHVPENAVICNTCTVSPVVLYYSLEPILRTKRKDVGISSMHPAAVPGTPQHGHYVIGGKTTDGKELATEEQIKKAVELAKSAGKEAYVVPADVSSVVADMGSLVTAVALSGVLDYYTVGRKIINAPKKMIEQQVIMTLQTMASLVETSGIEGMVKALNPELLIRSASSMKLLDRQKDLDAALEILQNLDETLKAEVEKAEIKPTTLVAAQSLVKEIKTLIGGAAAEGAIKRSARKLFEH
modifications: Alexafluor label (AlexaFluor 488), site not stated
B2: Methanocaldococcus jannaschii H2-forming N5,N10-methylene-H4MPT dehydrogenase (Hmd) (enzyme, Methanocaldococcus jannaschii JAL-1, UniProt Q58194 1-358, looked up)
chain: MKIAILGAGCYRTHAAAGITNFMRACEVAKEVGKPEIALTHSSITYGAELLHLVPDVKEVIVSDPCFAEEPGLVVIDEFDPKEVMEAHLSGNPESIMPKIREVVKAKAKELPKPPKACIHLVHPEDVGLKVTSDDREAVEGADIVITWLPKGNKQPDIIKKFADAIPEGAIVTHACTIPTTKFAKIFKDLGREDLNITSYHPGCVPEMKGQVYIAEGYASEEAVNKLYEIGKIARGKAFKMPANLIGPVCDMCSAVTATVYAGLLAYRDAVTKILGAPADFAQMMADEALTQIHNLMKEKGIANMEEALDPAALLGTADSMCFGPLAEILPTALKVLEKHKVVEEEGKTKCEIMSQKE
B3: Methanocaldococcus jannaschii prolyl-tRNA synthetase (ProRS) (enzyme, UniProt Q58635 1-455, looked up)
chain: MEFSEWYSDILEKAEIYDVRYPIKGCGVYLPYGFKIRRYTFEIIRNLLDESGHDEALFPMLIPEDLLAKEAEHIKGFEDEVYWVTHGGKTQLDVKLALRPTSETPIYYMMKLWVKVHTDLPIKIYQIVNTFRYETKHTRPLIRLREIMTFKEAHTAHSTKEEAENQVKEAISIYKKFFDTLGIPYLISKRPEWDKFPGAEYTMAFDTIFPDGRTMQIATVHNLGQNFSKTFEIIFETPTGDKDYAYQTCYGISDRVIASIIAIHGDEKGLILPPIVAPIQVVIVPLIFKGKEDIVMEKAKEIYEKLKGKFRVHIDDRDIRPGRKFNDWEIKGVPLRIEVGPKDIENKKITLFRRDTMEKFQVDETQLMEVVEKTLNNIMENIKNRAWEKFENFITILEDINPDEIKNILSEKRGVILVPFKEEIYNEELEEKVEATILGETEYKGNKYIAIAKTY

For data set [1], the target named is Alexa Fluor 488-labeled Methanocaldococcus jannaschii ProRS (Methanocaldococcus jannaschii) (UniProt Q58635). In words: fluorescence polarisation. (Polarisation of emitted light reports the rotation of a fluorescent probe.)
Data set [2] addresses Methanocaldococcus jannaschii HmdIII (Methanocaldococcus jannaschii JAL-1). In words: SEC-MALS. (Size exclusion chromatography separates by hydrodynamic size, large species first.)
The target in data set [3] is B3. In words: fluorescence polarisation.
The data set “SEC-MALS” concerns the molecule itself. Nature of the data set: SEC-MALS.

Values joined by “and” are separate entries in the source; they are usually repeats but may differ in a detail not shown here. Equal entries are not always repeated.

A word on the Kd: it is a measure of binding affinity in units of concentration. For orientation: stoichiometry N means a count of units in the complex or per binding partner. As to “Methanocaldococcus jannaschii HmdIII (natural protein)”, in data set [1], the Kd was 1890 nM. Also, in data set [2], the stoichiometry N was 2 and 4. Turning to B1, in data set [3], the binding result is on record as “binds”. Regarding B2, in the data set “SEC-MALS”, the “stoichiometry N” value was found to be 2. The same measure, in the same setting: the figure for B3 is 2.
